Monomer lifetime data for two substances are collected here from doi:10.1101/2023.09.08.556907.

For test [1], the target named is Halo-FtsZ (FtsZ fused with HaloTag) (Caulobacter crescentus). The test can be described thus: single molecule tracking in live cells.
Test [2] addresses Halo-FtsZ^D216A (Caulobacter crescentus). As to the kind of experiment: single molecule tracking in live cells.

The substance “Halo-FtsZ (FtsZ fused with HaloTag) (natural protein)” displayed a monomer lifetime in test [1] of 12.2 s.

Halo-FtsZ^D216A (natural protein) gave a monomer lifetime in test [2] of 16.2 s.
